# Results reported in patent publication US20200264176A1 (MIT, published 2020).
# Columns and labels:
# [1] = molecular target: T1, EDIII-DV1 (Dengue virus serotype 1, UniProt P17763 581-673); test: competition ELISA, equilibrium in solution
# T1 construct: also called EDIII of DV1; envelope glycoprotein domain III of Dengue virus serotype 1
# [2] = molecular target: T2, EDIII-DV2 (Dengue virus serotype 2, UniProt P14337 581-673); test: competition ELISA, equilibrium in solution
# T2 construct: also called EDIII of DV2; envelope glycoprotein domain III of Dengue virus serotype 2
# [3] = molecular target: T3, EDIII-DV3 (Dengue virus serotype 3, UniProt Q6YMS3 579-671); test: competition ELISA, equilibrium in solution
# T3 construct: also called EDIII of DV3; envelope glycoprotein domain III of Dengue virus serotype 3
# [4] = molecular target: T4, Dengue virus serotype 2 (DV2), envelope (E) glycoprotein on virus (Dengue virus serotype 2); test: cell-based or functional assay
# [5] = molecular target: T5, Dengue virus serotype 1 (DV1), envelope (E) glycoprotein on virus (Dengue virus serotype 1); test: cell-based or functional assay
# [6] = molecular target: T6, Dengue virus serotype 3 (DV3), envelope (E) glycoprotein on virus (Dengue virus serotype 3); test: cell-based or functional assay
# [7] = molecular target: T1, EDIII-DV1; test: competition ELISA
# [8] = molecular target: T2, EDIII-DV2; test: competition ELISA
# [9] = molecular target: T3, EDIII-DV3; test: competition ELISA
# [10] = molecular target: T1, EDIII-DV1; test: SPR
# [11] = molecular target: T2, EDIII-DV2; test: SPR
# [12] = molecular target: T3, EDIII-DV3; test: SPR
# [13] = molecular target: T1, EDIII-DV1; test: SPR; remark: listed apart in the source
# [14] = molecular target: T3, EDIII-DV3; test: SPR; remark: listed apart in the source
# [15] = molecular target: T7, EDIII-DV4 (Dengue virus serotype 4, UniProt P09866 580-672); test: indirect ELISA, coated recombinant EDIII
# [16] = molecular target: T1, EDIII-DV1; test: indirect ELISA, coated recombinant EDIII
# [17] = molecular target: T2, EDIII-DV2; test: indirect ELISA, coated recombinant EDIII
# [18] = molecular target: T3, EDIII-DV3; test: indirect ELISA, coated recombinant EDIII
# [19] = molecular target: T7, EDIII-DV4; test: competition ELISA, equilibrium in solution
# [20] = molecular target: T7, EDIII-DV4; test: calculated from KD, ΔG = RTln(KD) at 25° C
# [21] = molecular target: T4, Dengue virus serotype 2 (DV2), envelope …; test: cell-based or functional assay; remark: listed apart in the source
# [22] = molecular target: T5, Dengue virus serotype 1 (DV1), envelope …; test: cell-based or functional assay; remark: listed apart in the source
# [23] = molecular target: Dengue virus serotype 4 (DV4), envelope (E) glycoprotein on virus (Dengue virus serotype 4); test: cell-based or functional assay
# [24] = molecular target: T6, Dengue virus serotype 3 (DV3), envelope …; test: cell-based or functional assay; remark: listed apart in the source
# [25] = molecular target: T2, EDIII-DV2; test: SPR; remark: listed apart in the source
binder,measurement,setting,value
"4E11 WT (antibody, V domains shown, also called wt 4E11; WT 4E11) VH: VKLLEQSGAELVKPGASVRLSCTASGFNIKDTYMSWVKQRPEQGLEWIGRIDPANGDTKYDPKFQGKATITADTSSNTAYLHLSSLTSGDTAVYYCSRGWEGFAYWGQGTLVTVSA VL: ELVMTQTPASLAVSLGQRATISCRASENVDRYGNSFMHWYQQKAGQPPKLLIYRASNLESGIPARFSGSGSRTDFTLTINPVEADDVATYFCQRSNEVPWTFGGGTKLEIKR",Kd,[1],0.328 nM
same,Kd,[2],5.2 nM
same,Kd,[3],21.8 nM
same,IC50 (read off the curve),[4],~0.03 µg/mL
same,IC50 (read off the curve),[5],~0.06 µg/mL
same,IC50 (read off the curve),[6],~0.5 µg/mL
same,Kd,[7],0.328 nM
same,Kd,[8],5.2 nM
same,Kd,[9],21.8 nM
same,koff,[10],0.000551 s⁻¹
same,kon,[10],1.11e+06 M⁻¹ s⁻¹
same,koff,[11],0.0123 s⁻¹
same,kon,[11],1.98e+06 M⁻¹ s⁻¹
same,koff,[12],0.0102 s⁻¹
same,kon,[12],1.34e+06 M⁻¹ s⁻¹
same,Kd,[13],0.5 nM
same,Kd,[14],7.58 nM
"4E11 VL Ser60Arg single mutant (antibody, V domains shown, also called S60R) VH: VKLLEQSGAELVKPGASVRLSCTASGFNIKDTYMSWVKQRPEQGLEWIGRIDPANGDTKYDPKFQGKATITADTSSNTAYLHLSSLTSGDTAVYYCSRGWEGFAYWGQGTLVTVSA VL: ELVMTQTPASLAVSLGQRATISCRASENVDRYGNSFMHWYQQKAGQPPKLLIYRASNLERGIPARFSGSGSRTDFTLTINPVEADDVATYFCQRSNEVPWTFGGGTKLEIKR",binding result,[15],binds
same,binding result,[16],binds
same,binding result,[17],binds
same,binding result,[18],binds
"4E11 VL Ser60Tyr single mutant (antibody, V domains shown, also called S60Y) VH: VKLLEQSGAELVKPGASVRLSCTASGFNIKDTYMSWVKQRPEQGLEWIGRIDPANGDTKYDPKFQGKATITADTSSNTAYLHLSSLTSGDTAVYYCSRGWEGFAYWGQGTLVTVSA VL: ELVMTQTPASLAVSLGQRATISCRASENVDRYGNSFMHWYQQKAGQPPKLLIYRASNLEYGIPARFSGSGSRTDFTLTINPVEADDVATYFCQRSNEVPWTFGGGTKLEIKR",binding result,[15],binds
same,binding result,[16],binds
same,binding result,[17],binds
same,binding result,[18],binds
"4E11 VL Asn57Ser single mutant (antibody, V domains shown) VH: VKLLEQSGAELVKPGASVRLSCTASGFNIKDTYMSWVKQRPEQGLEWIGRIDPANGDTKYDPKFQGKATITADTSSNTAYLHLSSLTSGDTAVYYCSRGWEGFAYWGQGTLVTVSA VL: ELVMTQTPASLAVSLGQRATISCRASENVDRYGNSFMHWYQQKAGQPPKLLIYRASSLESGIPARFSGSGSRTDFTLTINPVEADDVATYFCQRSNEVPWTFGGGTKLEIKR",binding result,[15],binds
same,binding result,[16],binds
same,binding result,[17],binds
same,binding result,[18],binds
"4E11 VH-A55E single mutant (antibody, V domains shown) VH: VKLLEQSGAELVKPGASVRLSCTASGFNIKDTYMSWVKQRPEQGLEWIGRIDPENGDTKYDPKFQGKATITADTSSNTAYLHLSSLTSGDTAVYYCSRGWEGFAYWGQGTLVTVSA VL: ELVMTQTPASLAVSLGQRATISCRASENVDRYGNSFMHWYQQKAGQPPKLLIYRASNLESGIPARFSGSGSRTDFTLTINPVEADDVATYFCQRSNEVPWTFGGGTKLEIKR",Kd,[19],4440 nM
same,ΔG,[20],-7.29 kcal/mol
same,ΔΔG (ΔGmutant - ΔGWT),[20],-1.31 kcal/mol
"4E11 VL-S60W single mutant (antibody, V domains shown) VH: VKLLEQSGAELVKPGASVRLSCTASGFNIKDTYMSWVKQRPEQGLEWIGRIDPANGDTKYDPKFQGKATITADTSSNTAYLHLSSLTSGDTAVYYCSRGWEGFAYWGQGTLVTVSA VL: ELVMTQTPASLAVSLGQRATISCRASENVDRYGNSFMHWYQQKAGQPPKLLIYRASNLEWGIPARFSGSGSRTDFTLTINPVEADDVATYFCQRSNEVPWTFGGGTKLEIKR",binding result,[17],binds
"4E11 VH Ala55Asp single mutant (antibody, V domains shown, also called A55D) VH: VKLLEQSGAELVKPGASVRLSCTASGFNIKDTYMSWVKQRPEQGLEWIGRIDPDNGDTKYDPKFQGKATITADTSSNTAYLHLSSLTSGDTAVYYCSRGWEGFAYWGQGTLVTVSA VL: ELVMTQTPASLAVSLGQRATISCRASENVDRYGNSFMHWYQQKAGQPPKLLIYRASNLESGIPARFSGSGSRTDFTLTINPVEADDVATYFCQRSNEVPWTFGGGTKLEIKR",binding result,[15],binds
same,binding result,[16],binds
same,binding result,[17],binds
same,binding result,[18],binds
"4E11 VL-E59Q single mutant (antibody, V domains shown) VH: VKLLEQSGAELVKPGASVRLSCTASGFNIKDTYMSWVKQRPEQGLEWIGRIDPANGDTKYDPKFQGKATITADTSSNTAYLHLSSLTSGDTAVYYCSRGWEGFAYWGQGTLVTVSA VL: ELVMTQTPASLAVSLGQRATISCRASENVDRYGNSFMHWYQQKAGQPPKLLIYRASNLQSGIPARFSGSGSRTDFTLTINPVEADDVATYFCQRSNEVPWTFGGGTKLEIKR",Kd,[19],11000 nM
same,ΔG,[20],-6.76 kcal/mol
same,ΔΔG (ΔGmutant - ΔGWT),[20],-0.77 kcal/mol
same,binding result,[17],binds
"4E11 VL-R31K single mutant (antibody, V domains shown) VH: VKLLEQSGAELVKPGASVRLSCTASGFNIKDTYMSWVKQRPEQGLEWIGRIDPANGDTKYDPKFQGKATITADTSSNTAYLHLSSLTSGDTAVYYCSRGWEGFAYWGQGTLVTVSA VL: ELVMTQTPASLAVSLGQRATISCRASENVDKYGNSFMHWYQQKAGQPPKLLIYRASNLESGIPARFSGSGSRTDFTLTINPVEADDVATYFCQRSNEVPWTFGGGTKLEIKR",binding result,[17],binds
"4E11 VL-N57E single mutant (antibody, V domains shown) VH: VKLLEQSGAELVKPGASVRLSCTASGFNIKDTYMSWVKQRPEQGLEWIGRIDPANGDTKYDPKFQGKATITADTSSNTAYLHLSSLTSGDTAVYYCSRGWEGFAYWGQGTLVTVSA VL: ELVMTQTPASLAVSLGQRATISCRASENVDRYGNSFMHWYQQKAGQPPKLLIYRASELESGIPARFSGSGSRTDFTLTINPVEADDVATYFCQRSNEVPWTFGGGTKLEIKR",Kd,[19],8410 nM
same,ΔG,[20],-6.92 kcal/mol
same,ΔΔG (ΔGmutant - ΔGWT),[20],-0.93 kcal/mol
"4E11 VL Glu59Asn single mutant (antibody, V domains shown, also called E59N) VH: VKLLEQSGAELVKPGASVRLSCTASGFNIKDTYMSWVKQRPEQGLEWIGRIDPANGDTKYDPKFQGKATITADTSSNTAYLHLSSLTSGDTAVYYCSRGWEGFAYWGQGTLVTVSA VL: ELVMTQTPASLAVSLGQRATISCRASENVDRYGNSFMHWYQQKAGQPPKLLIYRASNLNSGIPARFSGSGSRTDFTLTINPVEADDVATYFCQRSNEVPWTFGGGTKLEIKR",binding result,[15],binds
same,binding result,[16],binds
same,binding result,[17],binds
same,binding result,[18],binds
"4E5A (antibody, V domains shown, also called 4E11-5A; quintuple mutant antibody) VH: VKLLEQSGAELVKPGASVRLSCTASGFNIKDTYMSWVKQRPEQGLEWIGRIDPENGDTKYDPKFQGKATITADTSSNTAYLHLSSLTSGDTAVYYCSRGWEGFAYWGQGTLVTVSA VL: ELVMTQTPASLAVSLGQRATISCRASENVDKYGNSFMHWYQQKAGQPPKLLIYRASELQWGIPARFSGSGSRTDFTLTINPVEADDVATYFCQRSNEVPWTFGGGTKLEIKR",FRNT50,[21],0.028 µg/mL
same,FRNT50,[22],0.19 µg/mL
same,FRNT50,[23],4 µg/mL
same,FRNT50,[24],0.77 µg/mL
same,Kd,[25],0.7 nM
